Measurements reported in PMC10653815.

What was measured:
[1] = molecular target: MosV-RBPβ (C-terminal six-bladed β-propeller head domain of the Mossman virus receptor-binding protein, Glu202−Thr632) (Mossman virus); experiment: SEC-SAXS; glycosylated protein, 45 µL at 5 mg/mL on Superdex 200 PC 3.2/30 in TBS, in-line SAXS; curves fitted with monomeric and dimeric crystal models
[2] = molecular target: MosV-RBPβ (C-terminal six-bladed β-propeller head domain of the Mossman virus receptor-binding protein, Glu202−Thr632) (Mossman virus); experiment: SEC; Superdex 200 10/30 column, 10 mM Tris pH 8.0, 150 mM NaCl; compared with gel filtration standards; pre- and post-deglycosylation
[3] = molecular target: NarV-RBPβ (C-terminal six-bladed β-propeller head domain of the Nariva virus receptor-binding protein, Glu184−Pro657) (Nariva virus); experiment: SEC-SAXS; glycosylated protein, 45 µL at 5 mg/mL on Superdex 200 PC 3.2/30 in TBS, in-line SAXS; curves fitted with monomeric and dimeric crystal models
[4] = molecular target: NarV-RBPβ (C-terminal six-bladed β-propeller head domain of the Nariva virus receptor-binding protein, Glu184−Pro657) (Nariva virus); experiment: SEC; Superdex 200 10/30 column, 10 mM Tris pH 8.0, 150 mM NaCl; compared with gel filtration standards; pre- and post-deglycosylation

Substance | stoichiometry N [1] | stoichiometry N [2] | stoichiometry N [3] | stoichiometry N [4]
MosV-RBPβ (C-terminal six-bladed β-propeller head domain of the Mossman virus receptor-binding protein, Glu202−Thr632) (domain or fragment) | 2 | 2 | – | –
NarV-RBPβ (C-terminal six-bladed β-propeller head domain of the Nariva virus receptor-binding protein, Glu184−Pro657) (domain or fragment) | – | – | 2 | 2
